In series [1] the target is T1, IL-12 (human, p35/p40 heterodimer) (Homo sapiens, UniProt P29459;P29460 SEQ:57-253,SEQ:23-328). As to the kind of experiment: filter; 1X PBS, tRNA, ssDNA, BSA, 30 min RT. Particulars: label: 32P.
Series [2] concerns the target T2, IL-23 (human, p19/p40 heterodimer) (Homo sapiens, UniProt Q9NPF7;P29460 SEQ:20-189,SEQ:23-328). The series is described as follows: filter; 1X PBS, tRNA, ssDNA, BSA, 30 min RT. Particulars: tags: R&D Systems, carrier free; label: 32P.
Series [3] addresses T2, IL-23 (human, p19/p40 heterodimer). The series is described as follows: competition; 1X PBS, 0.1 mg/mL BSA; direct binding Kd 40 nM with tRNA. Particulars: tags: R&D Systems, carrier free; label: 5'-32P; G4 (predicted). The procedure: (§1) The fraction aptamer bound vs. [IL-23] was used to calculate the KD by fitting the following equation to the data: Fraction aptamer bound=amplitude*([IL-23]/(KD+[IL-23]))+background binding.
(§2) Several of the minimized constructs from the dRmY Selection 2 were also assayed in a competition format in which cold aptamer was titrated and competed away trace ³²P ATP labeled aptamer In the competition assay, the [IL-23] was held constant, the [trace labeled aptamer] was held constant, and the [unlabeled aptamer] was varied. The KD was calculated by fitting the following equation to the data: Fraction aptamer bound=amplitude*([aptamer]/(KD+[aptamer]))+background binding.

Series [4] shares this target. The series is described as follows: filter; no binding; used as negative control. Particulars: tags: R&D Systems, carrier free; label: 5'-32P.
Text: as §1
Table 25 below summarizes the minimized sequences and the parent clone from which they were derived, and Table 26 summarizes the binding characterization from direct binding assays (+/−tRNA) and competition binding assays for the minimized constructs tested.

For series [5] the target is unchanged. The series is described as follows: filter; direct binding without tRNA. Particulars: tags: R&D Systems, carrier free; label: 5'-32P. The procedure:
(§3) These molecules were gel purified and assayed for IL-23 binding using the dot blot assay as described above and compared to each other and to the parent molecule, ARC979. An 8 point IL-23 titration (0 nM to 300 nM, 3 fold serial dilutions) was used in the binding assay.

Series [6] has the same target. The series is described as follows: competition; 1X PBS, 0.1 mg/mL BSA; direct Kd 93 nM with tRNA, 90 nM without. Particulars: tags: R&D Systems, carrier free; label: 5'-32P; G4. The procedure:
as §1, §2

Series [7] has the same target. The series is described as follows: filter; -tRNA; competition 6 nM. Particulars: tags: R&D Systems, carrier free. The procedure:
as §3

The target is the same in series [8]. As to the kind of experiment: filter; 0.1 mg/mL tRNA. Particulars: tags: R&D Systems, carrier free. The procedure:
Monitoring Progress of rRfY Selection. Dot blot binding assays were performed throughout the selections to monitor the protein binding affinity of the pools. Trace ³²P-labeled RNA was combined with a dilution series of h-IL-23 and incubated at room temperature for 30 minutes in 1×SHMCK (20 mM Hepes, 120 mM NaCl, 5 mM KCl, 1 mM MgCl₂, 1 mM CaCl₂, pH 7.4) plus 0.1 mg/mL tRNA for a final volume of 20 μL. The binding reactions were analyzed by nitrocellulose filtration using a Minifold I dot-blot, 96-well vacuum filtration manifold (Schleicher & Schuell, Keene, N.H.). A three-layer filtration medium was used, consisting (from top to bottom) of Protran nitrocellulose (Schleicher & Schuell), Hybond-P nylon (Amersham Biosciences) and GB002 gel blot paper (Schleicher & Schuell). RNA that is bound to protein is captured on the nitrocellulose filter, whereas the non-protein bound RNA is captured on the nylon filter. The gel blot paper was included simply as a supporting medium for the other filters. Following filtration, the filter layers were separated, dried and exposed on a phosphor screen (Amersham Biosciences, Piscataway, N.J.) and quantified using a Storm 860 Phosphorimager® blot imaging system (Amersham Biosciences).

Series [9] shares this target. The series is described as follows: cell_activity; TransAM STAT3. Particulars: tags: R&D Systems, carrier free.
Series [10] has the same target. The series is described as follows: filter; no binding in dot blot, but active in TransAM cell assay (p381). Particulars: tags: R&D Systems, carrier free; label: 5'-32P.
In series [11] the target is T3, IL-23 (mouse, p19/p40 heterodimer) (Mus musculus, UniProt Q9EQ14;P43432 SEQ:22-196,SEQ:23-335).
T3 sequence 1: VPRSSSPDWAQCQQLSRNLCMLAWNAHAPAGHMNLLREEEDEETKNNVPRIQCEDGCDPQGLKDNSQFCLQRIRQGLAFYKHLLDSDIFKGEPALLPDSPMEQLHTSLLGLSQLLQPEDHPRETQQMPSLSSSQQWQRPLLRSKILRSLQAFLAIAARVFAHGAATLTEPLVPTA
T3 sequence 2: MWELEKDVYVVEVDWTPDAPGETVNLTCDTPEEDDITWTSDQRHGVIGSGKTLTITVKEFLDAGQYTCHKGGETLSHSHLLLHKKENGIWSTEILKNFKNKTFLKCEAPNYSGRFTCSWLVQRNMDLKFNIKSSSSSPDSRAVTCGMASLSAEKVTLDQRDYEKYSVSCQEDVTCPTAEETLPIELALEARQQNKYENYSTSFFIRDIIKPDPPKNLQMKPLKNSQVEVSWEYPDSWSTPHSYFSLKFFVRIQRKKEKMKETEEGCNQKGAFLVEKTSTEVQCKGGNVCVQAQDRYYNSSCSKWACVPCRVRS
The series is described as follows: filter; 1X PBS, 0.1 mg/mL BSA, 30 min RT. Particulars: tags: isolated in-house; label: 32P. From the text: Based on visual inspection of the parent clone sequences of the mouse IL-23 rRfY aptamers described in Example 1E, and predicted RNA structures using an RNA folding program (RNAstructure), minimized constructs were designed for each of the seven binding mIL-23 clones. PCR templates for the minimized construct oligos were ordered from Integrated DNA Technologies (Coraville, Iowa). Constructs were PCR amplified, transcribed, gel purified, and tested for binding to mIL-23 using the dot blot binding assay previously described. Trace ³²P-labeled RNA was combined with mIL-23 and incubated at room temperature for 30 min in 1×PBS plus 0.1 mg/mL BSA for a final volume of 30 μL. The reaction was added to a dot blot apparatus (Schleicher and Schuell Minifold-1 Dot Blot, Acrylic). Binding curves were generated as described in previous sections. Table 33 summarizes the protein binding characterization for each rRfY minimized construct that had significant binding to mIL-23.

Series [12] has as its target T2, IL-23 (human, p19/p40 heterodimer). The series is described as follows: filter; no binding detectable. Particulars: tags: R&D Systems, carrier free; label: 5'-32P. From the text:
Following the dRmY selection process for aptamers binding to IL-23 (described in Example 1C above) and determination of the oligonucleotide sequences, the sequences were systematically minimized to obtain shorter oligonucleotide sequences that retain the binding characteristics. On the basis of the IL-23 binding analysis described in Example 1A above and the cell based assay data described in Example 3 below, ARC489 (SEQ ID NO 91) (74mer) was chosen for further characterization. 3 minimized constructs based on clone ARC489 (SEQ ID NO 91) were designed and generated. […] Table 23 includes the binding data for the dRmY minimized aptamers.

In series [13] the target is T1, IL-12 (human, p35/p40 heterodimer). As to the kind of experiment: filter; no binding detectable. Particulars: label: 32P.
Series [14] has as its target T2, IL-23 (human, p19/p40 heterodimer). The series is described as follows: filter; no binding detectable. Particulars: tags: R&D Systems, carrier free; label: 32P.

T1 sequence (P29459 23-219, chain 1 of 2): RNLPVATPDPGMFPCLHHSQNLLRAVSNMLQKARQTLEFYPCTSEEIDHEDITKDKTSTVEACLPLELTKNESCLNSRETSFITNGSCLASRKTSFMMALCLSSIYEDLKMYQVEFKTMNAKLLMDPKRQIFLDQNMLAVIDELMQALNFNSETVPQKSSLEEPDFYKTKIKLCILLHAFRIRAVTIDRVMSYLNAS
T1 sequence (P29460 23-328, chain 2 of 2): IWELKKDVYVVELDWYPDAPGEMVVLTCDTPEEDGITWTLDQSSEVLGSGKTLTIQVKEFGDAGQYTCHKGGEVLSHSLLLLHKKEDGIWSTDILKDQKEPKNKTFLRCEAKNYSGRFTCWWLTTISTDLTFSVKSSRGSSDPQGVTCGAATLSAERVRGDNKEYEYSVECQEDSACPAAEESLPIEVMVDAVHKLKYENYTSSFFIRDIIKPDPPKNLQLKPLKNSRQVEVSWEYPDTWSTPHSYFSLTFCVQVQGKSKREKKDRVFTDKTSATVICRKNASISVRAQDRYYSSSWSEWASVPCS
T2 sequence (Q9NPF7 20-189, chain 1 of 2): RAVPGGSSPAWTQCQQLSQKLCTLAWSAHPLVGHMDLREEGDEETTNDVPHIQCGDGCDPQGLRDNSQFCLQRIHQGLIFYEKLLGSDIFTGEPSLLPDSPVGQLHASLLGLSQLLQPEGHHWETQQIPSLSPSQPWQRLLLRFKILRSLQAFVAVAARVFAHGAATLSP
T2 sequence (P29460 23-328, chain 2 of 2): as the sequence (P29460 23-328, chain 2 of 2) above

B1: ARC491 (mixed)
RNA: GGGAGAGGAGAGAACGUUCUACAGCGCCGGUGGGUGGGCAUAGGGUGGAUGCGCUGUCGAUCGAUCGAUCGAUG
modifications: 2'-deoxy A and G, 2'-OMe C and U (dRmY)
A word on the Kd: it is the free concentration of one partner at which half of the binding sites on the other are occupied at equilibrium, for simple one-to-one binding. Turning to B1, the Kd in series [1] turned out to be 93 nM; in [2] it was 17.1 nM.
For CGAUAUAGGCGGUACGGGGGGAGUGGGCUGGGGUCG (mixed, 2'-deoxy A and G, 2'-OMe C and U (dRmY)) [ARC795], the Kd in series [3] is 4 nM.
GGCAAGGUAAUUGGGUAGUGAGGGCUGGG (mixed, 2'-deoxy A and G, 2'-OMe C and U (dRmY)) [ARC895]: the binding result in series [4] is “no binding”.
Turning to ACAGGCAAGUAAUUGGGGAGUGCGGGCGGGGUGU (mixed, dRmY; PS between nt 9 and 10) [ARC1154], binding in series [5] was characterised by a dissociation constant (Kd) of 412 nM.
On to ACAGGCAAGUAAUUGGGGAGUGCGGGCGGGGUGU (mixed, 2'-deoxy A and G, 2'-OMe C and U (dRmY)) [ARC979], for which the dissociation constant Kd in series [6] was 9 nM.

B2: ARC1161 (mixed)
RNA: ACAGGCAAGUAAUUGGGGAGUGCGGGCGGGGUGU
modifications: deoxy A,G; 2'-OMe C,U; PS 19-20 [PS between 19-20; 2'-OMe C,U at 2,6,10,13,14,21,23,27,32,34; deoxy A,G at all other positions]
B2 displayed a Kd in series [7] of 55 nM.

B3: ARC1162 (mixed)
RNA: B2 RNA
modifications: deoxy A,G; 2'-OMe C,U; PS 20-21 [PS between 20-21; 2'-OMe C,U at 2,6,10,13,14,21,23,27,32,34; deoxy A,G at all other positions]
Consider B3, for which the Kd in series [7] stood at 47 nM.
The IC50 is the point on the concentration scale where inhibition reaches its midpoint. A high value points to weaker potency in that assay. In series [8], GGGUACGCCGAAAGGCGCUUCCGAAAGGACGUCCGUAAGGGAUACCC (ssRNA, 2'-F C,U) [Type 1.4] had a Kd of 185 nM. The same molecule displayed an IC50 in series [9] of 80 nM.

B4: A10.min6 (ssRNA)
RNA: GGAGUACGCCGAAAGGCGCUCUGAGUACUCAGCGUCCGUAAGGGAUACUCC
modifications: 2'-F C,U
In series [8], B4 came in with a Kd of 48.3 nM. This molecule registered an IC50 in series [9] of 250 nM.
The like results for GGAGUACACAAGAAGUGCUUCCGAAAGGACGUCGAAUAGAUACUCC (ssRNA, 2'-F C,U) [B10.min5] were, in that order, 277 nM and 80 nM.
For GGCGGUUACGGGGGAUGCGGGUGGGACAGG (mixed, 2'-deoxy A and G, 2'-OMe C and U (dRmY)) [ARC982], in series [10], the binding result is “no binding”.

B5: ARC490 (mixed)
RNA: GGGAGAGGAGAGAACGUUCUACAGCCUUUUGGGUAAGGGGAGGGGUGCCGGUCGCUGUCGAUCGAUCGAUCGAUG
modifications: 2'-deoxy A and G, 2'-OMe C and U (dRmY)
With B5, the Kd came out at 37.1 nM in series [1] and 26 nM in series [2].
Molecule GGGCACUCAGCCACAGCUCGGUGGCUUAAUAUCUAUGUGAACGUGCCC (ssRNA, 2'-F all C and U (rRfY)) [ARC1633 minimer] yielded an equilibrium dissociation constant (Kd) in [11] of 25 nM.
In the case of ACAGCGCCGGUGUUUUCAUUGGGUGGAUGCGCUGU (mixed, 2'-deoxy A and G, 2'-OMe C and U (dRmY)) [ARC529], in series [12], the binding result is listed as “no binding”.
As for GCGCCGGUGGGCGGGCACCGGGUGGAUGCGCC (mixed, 2'-deoxy A and G, 2'-OMe C and U (dRmY)) [ARC528], the binding result in [12] was “no binding”.
In series [11], GGGCACUCAGCCACCUUGGGCUUAAUACCUAUCGGAUGUGCCC (ssRNA, 2'-F all C and U (rRfY)) [ARC1634 minimer] registered a Kd of 19 nM.
As for GGGCACUCAGCCACAGGUGGCUUAAUACUGUAAAGACGUGCCC (ssRNA, 2'-F all C and U (rRfY)) [ARC1739 (ARC1628 minimer)], in [11], the Kd was found to be 1 nM.

B6: ARC492 (mixed)
RNA: GGGAGAGGAGAGAACGUUCUACUCAAUGACCGCGCGAGGCUCUGGGAGAGGGCGCUGUCGAUCGAUCGAUCGAUG
modifications: 2'-deoxy A and G, 2'-OMe C and U (dRmY)
With B6, the binding result in [13] and in series [14] was “no binding” in each case.

These data come from patent publication US20060193821, “Aptamers to the human IL-12 cytokine family and their use as autoimmune disease therapeutics” (published 2006).
